Holding throughout (test): non-reducing SDS-PAGE of immunoprecipitates
For test [1], the target named is recombinant rat fibronectin, O form (no EIIIB, EIIIA or V segment), expressed in WEHI231 cells (rat).
Test [2] has as its target recombinant rat fibronectin, B form (with EIIIB only), expressed in WEHI231 cells (rat).
The target in test [3] is recombinant rat fibronectin, V form (with the V segment only), expressed in WEHI231 cells (rat).
Test [4] has as its target recombinant rat fibronectin, A form (with EIIIA only), expressed in WEHI231 cells (rat).

Here are results for four substances from publication PMC2116055.

Broadly, the stoichiometry N is the number of molecules, sites or subunits per partner or assembly. As to “recombinant rat fibronectin, O form (no EIIIB, EIIIA or V segment), expressed in WEHI231 cells (natural protein)”, in test [1], the percent in the dimeric form is 50% and the stoichiometry N was 2. Turning to “recombinant rat fibronectin, B form (with EIIIB only), expressed in WEHI231 cells (natural protein)”, the stoichiometry N in test [2] stood at 2. “recombinant rat fibronectin, V form (with the V segment only), expressed in WEHI231 cells (natural protein)”: in test [3], the percent in the dimeric form came to 90% and the stoichiometry N was 2. With “recombinant rat fibronectin, A form (with EIIIA only), expressed in WEHI231 cells (natural protein)”, in test [4], the stoichiometry N was found to be 2.
